Measurements taken from US20030162712A1.

Molecular target: naturally occurring Tek as expressed on human endothelial cells (human) (UniProt Q02763)
Experiment: flow cytometry on HMVEC-d, mAb 5 µg/ml, competitor human Ang2 10 µg/ml; negative control antibody

Sequence of UniProt Q02763 (Q02763 23-1124): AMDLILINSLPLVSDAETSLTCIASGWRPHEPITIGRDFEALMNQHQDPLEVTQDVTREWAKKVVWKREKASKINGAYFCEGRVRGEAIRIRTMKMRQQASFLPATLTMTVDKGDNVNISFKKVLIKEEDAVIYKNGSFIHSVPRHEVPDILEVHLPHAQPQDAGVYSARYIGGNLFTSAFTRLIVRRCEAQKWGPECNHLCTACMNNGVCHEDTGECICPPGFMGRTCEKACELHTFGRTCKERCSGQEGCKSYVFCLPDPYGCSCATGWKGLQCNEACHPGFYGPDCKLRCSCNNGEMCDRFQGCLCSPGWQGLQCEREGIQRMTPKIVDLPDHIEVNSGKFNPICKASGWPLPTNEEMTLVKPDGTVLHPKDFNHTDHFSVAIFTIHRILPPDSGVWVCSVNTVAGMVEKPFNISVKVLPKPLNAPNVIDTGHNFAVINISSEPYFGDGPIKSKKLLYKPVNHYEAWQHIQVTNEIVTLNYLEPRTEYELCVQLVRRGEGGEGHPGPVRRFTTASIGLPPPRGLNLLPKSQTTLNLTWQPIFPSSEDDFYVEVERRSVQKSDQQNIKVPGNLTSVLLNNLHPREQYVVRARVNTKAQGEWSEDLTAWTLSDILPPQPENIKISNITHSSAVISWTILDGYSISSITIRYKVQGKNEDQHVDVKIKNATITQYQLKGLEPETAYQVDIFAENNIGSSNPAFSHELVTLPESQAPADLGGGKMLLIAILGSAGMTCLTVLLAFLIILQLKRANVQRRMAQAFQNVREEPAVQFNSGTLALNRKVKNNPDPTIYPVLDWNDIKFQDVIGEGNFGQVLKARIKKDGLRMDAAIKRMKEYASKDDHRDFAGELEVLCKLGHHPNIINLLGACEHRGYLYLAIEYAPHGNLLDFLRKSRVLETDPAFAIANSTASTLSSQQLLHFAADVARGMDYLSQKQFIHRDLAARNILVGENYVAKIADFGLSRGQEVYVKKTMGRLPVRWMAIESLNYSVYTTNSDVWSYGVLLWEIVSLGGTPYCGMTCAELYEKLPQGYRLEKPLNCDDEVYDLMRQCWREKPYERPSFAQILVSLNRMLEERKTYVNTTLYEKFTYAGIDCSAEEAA

“IgG1 negative control mAb (MOPC21) (antibody)” gave a Percent Inhibition of Antibody Binding by Ang2 of 0%.
